Source: PMC7772355, “Transmembrane Peptides as a New Strategy to Inhibit Neuraminidase-1 Activation” (Frontiers in Cell and Developmental Biology, 2020)

B1: mutIntPepR (peptide)
peptide: GSMWHHHHHHGGELVDPVVVAIAVVTSSIIAFFSN
notes: holds the His6; not NEU1; human NEU1, TM2 segment with four point mutations; The gene construct had GB1 as leading fusion protein followed by a thrombin cleavage site; the printed peptide begins with GS, so GB1 was probably cleaved off (surmised); Unlabeled; embedded in DPC micelles; also called recombinant version of the four-point mutated peptide IntPep; source: continuous exchange cell-free …
B2: hNEU1-TMS2 (domain or fragment)
chain: not shown
modifications: 15N-labeled
notes: human NEU1, residues R305-R341, holding the transmembrane segment TM2; Embedded in DPC micelles for NMR; also called hNEU1/TMS2 fragment; hNEU1 TM2 segment; source: bacterial expression and purification as described in Maurice et al. (2016)

What was measured:
[1] = target: B2; assay: NMR titration; heterodimerisation: 0.3 mM 15N-labeled hNEU1-TMS2 in DPC micelles (D/P 120) titrated with unlabeled recombinant peptide in micelles up to N/I of 1 (D/P near 100); pH 6.5, 20 mM sodium phosphate, 313 K, 1H/15N-TROSY; conditions: both partners purified
[2] = target: the molecule itself; assay: NMR titration; homodimerisation: 0.4 mM 15N-labeled hNEU1-TMS2 in DPC micelles, D/P 50 titrated with DPC to 110 (further samples to D/P 200); pH 6.5, 20 mM sodium phosphate, 313 K, 800 MHz, 1H/15N-TROSY

Binder | binding result [1] | stoichiometry N [2]
B1 | binds | 
B2 |  | 2
